For this experiment, the target named is Purified recombinant Syrian hamster vimentin (Syrian hamster) (UniProt P02544). Put plainly: cross-linking; vimentin at 3 μM, preincubated without or with 150 mM NaCl, 20 μM DBB for 1 h at 37 °C; 7.5% SDS-PAGE and WB.

Regarding “Purified recombinant Syrian hamster vimentin (from UniProt P02544 1-465) (natural protein)”, the fold cross-linked dimer, polymerized versus non-polymerized vimentin was determined as 3.9 fold.
